Measurements published in patent US20150203581A1 (Genentech, published 2015).
Where two headings read alike, the source gives them in different places.

Legend:
[1] = target: T1, recombinant human integrin α5β1 (human, UniProt P08648 42-995; P05556 21-728); test: SPR (BIAcore), IgG captured on anti-human Fc chip, Human Integrin α5β1 (R&D) as analyte
T1 construct: also called human α5β1 integrin
Experimental: (§1) To determine binding kinetics and affinities of the antibodies described herein, Surface Plasmon Resonance (SRP) measurement with a BIAcore™-3000 instrument was used. Antibody was first captured by pre-immobilized rabbit anti-human Fc CM5 biosensor chip on the different flow cell to achieve approximately 150 RU (Response Units). For kinetics measurements, 2-fold serial dilutions of human integrin α5β1 (300 nM to 1.2 nM) were injected in PBT buffer (PBS with 0.05% Tween 20) at 25° C. with a flow rate of 30 μl/min. Association rates (kₒₙ) and dissociation rates (koff) were calculated using a simple one-to-one Langmuir binding model (BIAcore Evaluation Software version 3.2). The equilibrium dissociation constant (KD) was calculated as the ratio koff/kₒₙ.
(§2) To determine binding kinetics and affinities of chimeric 18C12, h18C12.v6.1, h18C12.v6.1.1, h18C12.v6.1.2, h18C12.v6.1.3, h18C12.v6.1.4, h18C12.v6.1.5 IgGs, Surface Plasmon Resonance (SRP) measurement with a BIAcore™-3000 instrument as described in Example 1 was used.

[2] = target: T1, recombinant human integrin α5β1; test: SPR (BIAcore), antibody as hIgG is the captured ligand, Human Integrin α5β1 (R&D) is the analyte
Experimental: as §1

[3] = target: T1, recombinant human integrin α5β1; test: phage competition ELISA: Fab-displaying phage pre-incubated with serially diluted soluble human integrin α5β1, unbound phage captured on plate-coated human integrin α5β1, anti-M13-HRP detection
Experimental: MAXISORP™ microtiter plates were coated with recombinant human integrin β5β1 (R&D) at 5 μg/ml in PBS overnight and then blocked with PBST buffer (0.5% BSA and 0.05% Tween 20 in PBS) for an hour at room temperature. Phage from culture supernatants were incubated with serially diluted human integrin α5β1 in PBST buffer in a tissue-culture microtiter plate for an hour, after which 80 μl of the mixture was transferred to the target-coated wells for 15 minutes to capture unbound phage. The plate was washed with PBT buffer (0.05% Tween 20 in PBS), and HRP-conjugated anti-M13 (Amersham Pharmacia Biotech) was added (1:5000 in PBST buffer) for 40 minutes. The plate was washed with PBT buffer and developed by adding tetramethylbenzidine substrate (Kirkegaard and Perry Laboratories, Gaithersburg, Md.). The absorbance at 450 nm was plotted as a function of target concentration in solution to determine phage IC₅₀.

[4] = target: T1, recombinant human integrin α5β1; test: cell-based or functional assay
[5] = target: T1, recombinant human integrin α5β1; test: BIAcore SPR, IgG captured by anti-human Fc, human integrin α5β1 as analyte
Experimental: as §1, §2

[6] = target: T1, recombinant human integrin α5β1; test: SPR (BIAcore), antibody as hIgG is the captured ligand, Human Integrin α5β1 (R&D) is the analyte; remark: listed apart in the source
Experimental: as §1, §2

[7] = target: T1, recombinant human integrin α5β1; test: cell-based or functional assay; remark: listed apart in the source
[8] = target: T2, recombinant α5β1 extracellular domain; test: blocking ELISA: antibody titrated and premixed with recombinant α5β1 (R&D), then added to fibronectin-coated wells; bound α5β1 detected with anti-β1-biotin / streptavidin-HRP (OD450); the blocked ligand is fibronectin
T2 construct: extracellular domain; also called α5β1 (R & D Systems)
Experimental: anti-β5β1 antibody (30 μg/mL) was serially diluted 1:3 11 times. 50 μl of the serially diluted anti-β5β1 antibody was added to 0.65 mL micro tubes and premixed (1:1) with 50 μL of 200 ng/mL […] (R & D Systems) in ELISA buffer (150 mM NaCl, 10 mM Tris, pH 7.5, 5 mg/mL BSA, 1 mM MnCl₂) for 60 minutes at room temperature with gentle agitation. 25 μL of the premixed α5β1 and anti-β5β1 antibody was added to the Fibronectin coated wells and the plates were incubated at room temperature for 60 minutes with gentle agitation. Plates were washed 6 times with PBT buffer, 100 ng/mL anti-β1-biotin in ELISA buffer was added to each well and the plates were incubated for 60 minutes at room temperature with gentle agitation. Plates were washed 6 times with 80 μL PBT buffer, 25 μL of Streptadvidin-HRP (1:50,000 in ELISA buffer, GE Healthcare) was added to each well, and the plates were incubated for 60 minutes at room temperature with gentle agitation. Plates were washed 6 times with 80 μL PBT buffer, 25 μl of TMB substrate (Kirkgaard and Perry Laboratories) was added to each well, plates were incubated about 6 minutes at room temperature, and the reaction was stopped with 25 μL of 1 M Phosphoric Acid. Absorbance was read at 450 nm and IC₅₀ values were analyzed as described in section B above. […]

T1 sequence (P08648 42-995 limits assumed, chain 1 of 2): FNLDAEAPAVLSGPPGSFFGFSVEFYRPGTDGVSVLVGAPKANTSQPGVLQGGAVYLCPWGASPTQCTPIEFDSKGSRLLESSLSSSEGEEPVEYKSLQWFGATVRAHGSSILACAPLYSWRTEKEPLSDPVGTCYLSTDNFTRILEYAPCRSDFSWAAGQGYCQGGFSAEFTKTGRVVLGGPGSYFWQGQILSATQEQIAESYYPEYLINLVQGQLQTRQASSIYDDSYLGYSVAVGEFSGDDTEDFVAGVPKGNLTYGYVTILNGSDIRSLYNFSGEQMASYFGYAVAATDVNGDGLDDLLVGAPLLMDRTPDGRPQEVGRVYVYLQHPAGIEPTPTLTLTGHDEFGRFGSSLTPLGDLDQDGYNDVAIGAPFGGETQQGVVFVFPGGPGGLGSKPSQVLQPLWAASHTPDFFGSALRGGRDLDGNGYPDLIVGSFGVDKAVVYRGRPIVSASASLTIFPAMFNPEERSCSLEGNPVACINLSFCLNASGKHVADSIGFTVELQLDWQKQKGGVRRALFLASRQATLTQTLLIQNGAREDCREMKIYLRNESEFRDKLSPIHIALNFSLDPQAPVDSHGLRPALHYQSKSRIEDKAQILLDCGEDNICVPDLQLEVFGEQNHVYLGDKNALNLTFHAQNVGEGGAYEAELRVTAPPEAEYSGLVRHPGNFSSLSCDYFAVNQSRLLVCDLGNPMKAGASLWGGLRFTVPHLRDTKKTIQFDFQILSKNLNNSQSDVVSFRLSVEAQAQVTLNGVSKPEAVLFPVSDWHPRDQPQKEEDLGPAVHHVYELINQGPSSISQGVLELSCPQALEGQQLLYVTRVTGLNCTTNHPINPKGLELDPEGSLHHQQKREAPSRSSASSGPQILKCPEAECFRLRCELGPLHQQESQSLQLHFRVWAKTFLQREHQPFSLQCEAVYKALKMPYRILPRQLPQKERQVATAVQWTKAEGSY
T1 sequence (P05556 21-728 limits assumed, chain 2 of 2): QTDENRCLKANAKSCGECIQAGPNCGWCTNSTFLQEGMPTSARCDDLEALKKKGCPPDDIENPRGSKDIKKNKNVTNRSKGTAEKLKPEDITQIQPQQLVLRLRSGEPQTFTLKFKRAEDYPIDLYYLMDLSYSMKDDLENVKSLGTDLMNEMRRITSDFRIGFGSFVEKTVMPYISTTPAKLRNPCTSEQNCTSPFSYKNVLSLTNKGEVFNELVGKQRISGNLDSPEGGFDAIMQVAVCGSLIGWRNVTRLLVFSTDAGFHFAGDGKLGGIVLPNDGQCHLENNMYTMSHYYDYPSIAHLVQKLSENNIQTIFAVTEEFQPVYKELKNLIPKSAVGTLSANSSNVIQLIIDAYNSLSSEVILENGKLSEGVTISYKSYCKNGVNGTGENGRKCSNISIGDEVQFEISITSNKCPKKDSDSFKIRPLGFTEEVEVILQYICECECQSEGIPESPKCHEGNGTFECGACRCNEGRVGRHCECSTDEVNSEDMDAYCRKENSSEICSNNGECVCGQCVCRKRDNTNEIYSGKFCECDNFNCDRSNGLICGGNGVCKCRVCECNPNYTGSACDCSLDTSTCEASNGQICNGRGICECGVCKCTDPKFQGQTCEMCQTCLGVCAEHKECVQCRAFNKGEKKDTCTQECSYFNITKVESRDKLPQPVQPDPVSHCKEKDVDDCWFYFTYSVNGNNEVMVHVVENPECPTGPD
T2 sequence (P08648 42-995, chain 1 of 2): as the sequence (P08648 42-995 limits assumed, chain 1 of 2) above
T2 sequence (P05556 21-728, chain 2 of 2, further chain): as the sequence (P05556 21-728 limits assumed, chain 2 of 2) above

Binder	Kd [1] [nM]	koff [1] [s⁻¹]	kon [1] [M⁻¹ s⁻¹]	Kd [2] [nM]	koff [2] [s⁻¹]	kon [2] [M⁻¹ s⁻¹]	IC50 [3] [nM]	IC50 for inhibition of adhesion of U937 cells to plate-coated fibronectin (Cell-Titer Glo luminescence); the target is α5β1 on the U937 cells [4] [nM]	Kd [6] [nM]	koff [6] [s⁻¹]	kon [6] [M⁻¹ s⁻¹]	further results
h18C12.v6.1.2 (antibody, V domains shown, copies: 2 + 2) VH: EVQLVESGGGLVQPGGSLRLSCAASGFTFSARWIYWVRQAPGKGLEWVGGIKTKPAIYATEYADSVKGRFTISRDDSKNTLYLQMNSLRAEDTAVYYCARLTGMKYFDYWGQGT VL: SSELTQDPAVSVALGQTVRITCTLSSQHSTYTIGWYQQKPGQAPVYLMYLNSDGSHNKGSGIPDRFSGSSSGATRSLTITNAQAEDEADYYCAAYYAYGYVFGGGT	13.5	0.000643	48000									
h18C12.v3 (Fab, V domains shown, also called Humanized 18C12.v3; h18C12.v3 parental clone) VH: EVQLVESGGGLVQPGGSLRLSCAASGFTFSNRWIYWVRQAPGKGLEWVGGIKTKPNIYATEYADSVKGRFTISRDDSKNTLYLQMNSLRAEDTAVYYCARLTGMRYFDYWGQGT VL: EPVLTQSPSASASLGASVKLTCTLSSQHSTYTIGWYQQQPGKAPRYLMYLNSDGSHNKGDGIPDRFSGSSSGADRYLTISNLQSEDEADYYCGSSYSSGYVFGGGT				11.5	0.000807	71000	0.72					

Now from value to binder, other results behind:

Kd [1] [nM]	koff [1] [s⁻¹]	kon [1] [M⁻¹ s⁻¹]	Kd [2] [nM]	koff [2] [s⁻¹]	kon [2] [M⁻¹ s⁻¹]	IC50 [3] [nM]	IC50 for inhibition of adhesion of U937 cells to plate-coated fibronectin (Cell-Titer Glo luminescence); the target is α5β1 on the U937 cells [4] [nM]	Kd [6] [nM]	koff [6] [s⁻¹]	kon [6] [M⁻¹ s⁻¹]	Binder	further results
							0.207	4	0.000386	97000	h18C12.v6.1Lam3 (antibody, V domains shown, CDRs come from h18C12.v6 with changes in CDR-L2 (D50cS, D56S), CDR-H1 (N31A) and CDR-H2 (N53A); The human λIII framework carries L46Y, V47L, I48M, N69A, A71R and G77N) VH: EVQLVESGGGLVQPGGSLRLSCAASGFTFSARWIYWVRQAPGKGLEWVGGIKTKPAIYATEYADSVKGRFTISRDDSKNTLYLQMNSLRAEDTAVYYCARLTGMKYFDYWGQGT VL: SSELTQDPAVSVALGQTVRITCTLSSQHSTYTIGWYQQKPGQAPVYLMYLNSSGSHNKGSGIPDRFSGSSSGATRSLTITNAQAEDEADYYCAAYYAYGYVFGGGT	fold higher binding affinity than hamster 18C12 [5]: ~2 fold
15.5	0.000659	43000									h18C12.v6.1.5 (antibody, V domains shown, Derived from h18C12.v6.1 by removing Asn in CDR-L2 positions 50a-50d; also called anti-α5β1 antibody h18C12.v6.1.5) VH: EVQLVESGGGLVQPGGSLRLSCAASGFTFSARWIYWVRQAPGKGLEWVGGIKTKPAIYATEYADSVKGRFTISRDDSKNTLYLQMNSLRAEDTAVYYCARLTGMKYFDYWGQGT VL: SSELTQDPAVSVALGQTVRITCTLSSQHSTYTIGWYQQKPGQAPVYLMYLNSDSSHNKGSGIPDRFSGSSSGATRSLTITNAQAEDEADYYCAAYYAYGYVFGGGT	IC50 for inhibition of adhesion of U937 cells to plate-coated fibronectin (Cell-Titer Glo luminescence); the target is α5β1 on the U937 cells [7]: 0.126 nM; IC50 [8]: 0.077 nM
			4.8	0.00075	174000	0.41					h18C12.v6 (Fab, V domains shown) VH: EVQLVESGGGLVQPGGSLRLSCAASGFTFSNRWIYWVRQAPGKGLEWVGGIKTKPNIYATEYADSVKGRFTISRDDSKNTLYLQMNSLRAEDTAVYYCARLTGMKYFDYWGQGT VL: EPVLTQSPSASASLGASVKLTCTLSSQHSTYTIGWYQQQPGKAPRYLMYLNSDGSHNKGDGIPDRFSGSSSGADRYLTISNLQSEDEADYYCAAYYAYGYVFGGGT	
							0.159	7.68	0.000922	120000	chimeric 18C12 (antibody, V domains shown, also called chimeric 18C12 IgG) VH: EVHLVESGGDLVQPGSSLKLSCAASGFTFSNRWIYWVRQAPGKGLEWVGGIKTKPNIYATEYADSVKGRFTISRDDSKNSLYLQMNTLRVDDTAIYYCTSLTGMRYFDYWGQGT VL: QPVLTQSPSASASLGNSVKITCTLSSQHSTYTIGWYQQHPDKAPKYVMYLNSDGSHNKGDGIPDRFSGSSSGAHRYLSISNIQPEDEADYFCGSSYSSGYVFGSGT	
